{"source": "patent US20030200558A1", "about": "(MONSANTO, published 2003)", "proteins": {"B1": {"name": "mature form (plus additional methionine encoded by start codon) of the β-conglycinin β subunit encoded by pMON39329 (other)", "chain": "MLKVREDENNPFYLRSSNSFQTLFENQNGRIRLLQRFNKRSPQLENLRDYRIVQFQSKPNTILLPHHADADFLLFVLSGRAILTLVNNDDRDSYNLHPGDAQRIPAGTTYYLVNPHDHQNLKIIKLAIPVNKPGRYDDFFLSSTQAQQSYLQGFSHNILETSFHSEFEEINRVLLGEEEEQRQQEGVIVELSKEQIRQLSRRAKSSSRKTISSEDEPFNLRSRNPIYSNNFGKFFEITPEKTPQLRDLDIFLSSVDINEGALLLPHFNSKAIVILVINEGDANIELVGIKEQQQKQKQEEEPLEVQRYRAELSEDDVFVIPAAYPFVVNATSNLNFLAFGINAENNQRNFLAGEKDNVVRQIERQVQELAFPGSAQDVERLLKKQRESYFVDAQPQQKEEGSKGRKGPFPSILGALY", "notes": "expressed in E. coli; also called native form"}, "B2": {"name": "epitope (FLAG)-tagged form of the β-conglycinin β subunit encoded by pMON39328 (other)", "chain": "MDYKDDDDKLKVREDENNPFYLRSSNSFQTLFENQNGRIRLLQRFNKRSPQLENLRDYRIVQFQSKPNTILLPHHADADFLLFVLSGRAILTLVNNDDRDSYNLHPGDAQRIPAGTTYYLVNPHDHQNLKIIKLAIPVNKPGRYDDFFLSSTQAQQSYLQGFSHNILETSFHSEFEEINRVLLGEEEEQRQQEGVIVELSKEQIRQLSRRAKSSSRKTISSEDEPFNLRSRNPIYSNNFGKFFEITPEKTPQLRDLDIFLSSVDINEGALLLPHFNSKAIVILVINEGDANIELVGIKEQQQKQKQEEEPLEVQRYRAELSEDDVFVIPAAYPFVVNATSNLNFLAFGINAENNQRNFLAGEKDNVVRQIERQVQELAFPGSAQDVERLLKKQRESYFVDAQPQQKEEGSKGRKGPFPSILGALY", "notes": "Expressed in E. coli. pMON39335 encodes the same protein (silent change TTA to CTT at Leu24); also called pMON39335"}, "B3": {"name": "β-conglycinin β subunit mutant 39335-71 (other)", "chain": "MDYKDDDDKLKVREDENNPFYLRSSNSFQTLFENQNGRIRLIQRFNKRSPQIENLRDYRIVQFQSKPNTIILPHHADADFIIIILSGRAILTLVNNDDRDSYNIHPGDAQRIPAGTTYYIINPHDHQNLKIIKIAIPVNKPGRYDDFFLSSTQAQQSYLQGFSHNILETSFHSEFEEINRVLLGEEEEQRQQEGVIVELSKEQIRQLSRRAKSSSRKTISSEDEPFNLRSRNPIYSNNFGKFFEITPEKTPQIRDLDIFLSSVDINEGALLLPHFNSKAIVILVINEGDANIELVGIKEQQQKQKQEEEPLEVQRYRAELSEDDIIVIPAAYPFVVNATSNLNIIAIGINAENNQRNFLAGEKDNVVRQIERQVQELAFPGSAQDVERLLKKQRESYFVDAQPQQKEEGSKGRKGPFPSILGALY"}, "B4": {"name": "β-conglycinin β subunit mutant 39335-74 (other)", "chain": "B3 chain with I52L, I253L, I325V, I326F, I344F, I345L, I347F, F398I"}, "B5": {"name": "β-conglycinin β subunit mutant 39335-3 (other)", "chain": "B2 chain with N18I, L42I, R59I, H74I, P137I, V195I, P233I, N286I"}, "B6": {"name": "β-conglycinin β subunit mutant 39335-1 (other)", "chain": "MDYKDDDDKLKVREDENNPFYLRSSNSFQTLFENQNGRIRLIQRFNKRSPQLENLRDYRIVQFQSKPNTIILPHHADADFLLFVLSGRAILTLVNNDDRDSYILHPGDAQRIPAGTTYYLVNPHDHQNLKIIILAIPVNKPGRYDDFFLSSTQAQQSYLQGFSHNILETSFHSEFEEINRVLLGEEEEQRQQEGIIVELSKEQIRQLSRRAKSSSRKTISSEDEPFNLRSRNPIYSNNFGKIFEITPEKIIQLRDLDIFLSSVDINEGALLLPHFNSKAIVIIIINEGDANIEIVGIKEQQQKQKQEEEILEVQRYRAELSEDDVFVIPAAYPIVVNATSNINFLAFGINAENIQRNFLAGEKDNVVRQIERQVQELAFPGSAQDVERLLKKQRESYIVDAQPQQKEEGSKGRKGPFPSILGALY"}, "B7": {"name": "β-conglycinin β subunit mutant 39335-2 (other)", "chain": "B6 chain with R59I, L81I, I242F, I283L, I284V, I294L, I310P"}, "B8": {"name": "β-conglycinin β subunit mutant 39335-6 (other)", "chain": "MDYKDDDDKLKVREDENIPFYLRSSNSFQTLFENQNGRIRLIQRFNKRSPQLENLRDYIIVQFQSKPNTILLPIHADADFLLFVLSGRAILTLVNNDDRDSYNLHPGIAQRIPAGTTYYLVNIHDHQNLKIIKLAIIVNKPGRYDDFFLSSTQAQQSYLQGFSHNILETSFHSEFEEINRVLLGEEEEQRQQEGIIVELSKEQIRQLSRRAKSSSRKTISSEDEPFNLRSRNIIYSNNFGKFFEITPEKIIQLRDLDIFLSSVDINEGALLLPHFNSKAIVILVIIEGDANIELVGIKEQQQKQKQEEEPLEVQRYRAELSEDDVFVIPAAYPFVVNATSNLNFLAFGINAENNQRNFLAGEKDNVVRQIERQVQELAFPGSAQDVERLLKKQRESYFVDAQPQQKEEGSKGRKGPFPSILGALY"}, "B9": {"name": "β-conglycinin β subunit mutant 39328-27 (other)", "chain": "B2 chain with Y21W, Y58W, H74W, Y102W, Y118W, Y119W"}, "B10": {"name": "β-conglycinin β subunit mutant 39328-36 (other)", "chain": "B2 chain with Y58W, Y102W, P123W, Y144W, Y158W, P225W, Y235W, P251W, Y316W"}, "B11": {"name": "β-conglycinin β subunit mutant 39328-65 (other)", "chain": "B2 chain with Y21W, Y58W, Y102W, P123W, Y144W, Y158W, Y316W, Y332W, Y397W"}, "B12": {"name": "β-conglycinin β subunit mutant 39328-59 (other)", "chain": "B2 chain with Y21W, Y58W, Y102W, Y119W, P123W, Y144W, Y158W, Y316W, Y397W"}, "B13": {"name": "β-conglycinin β subunit mutant 39328-63 (other)", "chain": "B2 chain with Y21W, Y58W, Y102W, P123W, Y144W, Y158W, P251W, Y316W, Y397W"}}, "note": "Substitutions are numbered along the chain they refer to.", "data": [{"target": "the molecule itself", "test": "sucrose gradient sedimentation, anti-FLAG western (self-assembly)", "procedure": "(§1) To determine if the recombinant forms of β subunit expressed in E. coli from pMON39328 and pMON39329 could self-assemble to form trimers, aliquots of the soluble protein fraction from E. coli lysates are layered onto 12 ml of a 5-25% sucrose density gradient and centrifuged at 36,000 rpm for 17.5 hours at 20° C. (Sorvall TH-641 rotor; Sorvall Ultra Pro 80 ultracentrifuge). Following centrifugation, the gradient is divided into fractions using a Labconco Autodensi-Flow instrument (Labconco, Kansas City, Mo.), and each fraction is analyzed by western blot analysis using Anti-FLAG M2 antibody (Stratagene Corporation, LaJolla, Calif.) to determine which fractions contained β-conglycinin β subunit. 7S and […] soy protein fractions, as well as ovalbumin (45 kD) and aldolase (158 kD), are run as size markers on separate gradients.", "values": [{"protein": "B1", "binding result": "binds"}, {"protein": "B2", "binding result": "binds"}]}, {"target": "the molecule itself", "test": "sucrose gradient sedimentation, anti-FLAG western (self-assembly)", "remark": "another data set of the same source", "values": [{"protein": "B3", "binding result": "no binding"}, {"protein": "B4", "binding result": "no binding"}, {"protein": "B5", "binding result": "no binding"}, {"protein": "B6", "binding result": "no binding"}, {"protein": "B7", "binding result": "no binding"}, {"protein": "B8", "binding result": "no binding"}]}, {"target": "the molecule itself", "test": "sucrose gradient sedimentation, anti-FLAG western (self-assembly)", "remark": "another data set of the same source", "procedure": "as §1\nThis example sets forth confirmation of the protein structure from the expression of modified β-conglycinin β subunit clones. The assembly properties of the following modified forms of the β subunit (indicated by mutant ID number), each containing a different tryptophan substitution, are determined as described in Example 6. Western blot analysis of sucrose gradient fractions is carried out as in Example 6 using anti-FLAG antibody.", "values": [{"protein": "B9", "binding result": "no binding"}, {"protein": "B10", "binding result": "no binding"}, {"protein": "B11", "binding result": "no binding"}, {"protein": "B12", "binding result": "no binding"}, {"protein": "B13", "binding result": "no binding"}]}]}
